Target: T1, MBP-BirA fusion (E. coli biotin ligase / biotin holoenzyme synthetase with N-terminal maltose binding protein) (E. coli, UniProt P0AEX9 27-392 = MBP; P06709 1-321, limits assumed)
T1 construct: also called BHS
Test: phage ELISA on plate-coated MBP-BirA, anti-M13-HRP detection

B1: non-displaying M13 phage (no insert), without selenocysteine (other, bacteriophage M13, UniProt P69168 19-424, looked up)
chain: AETVESCLAKPHTENSFTNVWKDDKTLDRYANYEGCLWNATGVVVCTGDETQCYGTWVPIGLAIPENEGGGSEGGGSEGGGSEGGGTKPPEYGDTPIPGYTYINPLDGTYPPGTEQNPANPNPSLEESQPLNTFMFQNNRFRNRQGALTVYTGTVTQGTDPVKTYYQYTPVSSKAMYDAYWNGKFRDCAFHSGFNEDPFVCEYQGQSSDLPQPPVNAGGGSGGGSGGGSEGGGSEGGGSEGGGSEGGGSGGGSGSGDFDYEKMANANKGAMTENADENALQSDAKGKLDSVATDYGAAIDGFIGDVSGLANGNGATGDFAGSNSQMAQVGDGDNSPLMNNFRQYLPSLPQSVECRPFVFSAGKPYEFSIDCDKINLFRGVFAFLLYVATFMYVFSTFANILRNKES
notes: Control; whole phage, applied both after treatment with the biotinylating reagent and untreated; also called non-displaying phage
B1: no binding.

Reference: patent publication US20050048548A1 (NEW ENGLAND BIOLABS, published 2005)
